Data published in patent publication US20180155451A1 (published 2018).

T1: FcγRIIb extracellular domain with C-terminal His tag (human, UniProt P31994 43-217)
T1 construct: extracellular domain; also called 2b; FcgRIIb; not shown: His tag at the C terminus
T1 sequence (looked up): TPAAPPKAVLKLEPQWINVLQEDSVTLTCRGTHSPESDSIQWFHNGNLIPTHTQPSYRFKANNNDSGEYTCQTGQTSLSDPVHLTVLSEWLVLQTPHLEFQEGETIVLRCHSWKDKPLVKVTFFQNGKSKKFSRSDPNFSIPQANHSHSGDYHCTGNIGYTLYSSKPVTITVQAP

B1: GpH7-A5/GpH7-B3 variant S267_06M/GpL16-k0 (antibody, human IgG1, kappa)
heavy 1: not shown
heavy 2: not shown
light: DIVMTQSPLSLPVTPGEPASISCQASESLVHSNRNTYLHWYLQKPGQSPQLLIYKVSNRFSGVPDRFSGSGSGTDFTLKISRVEAEDVGVYYCSQNTHVPPTFGQGTKVEIERTVAAPSVFIFPPSDEQLKSGTASVVCLLNNFYPREAKVQWKVDNALQSGNSQESVTEQDSKDSTYSLSSTLTLSKADYEKHKVYACEVTHQGLSSPVTKSFNRGEC
notes: He Ab: mutation in the GpH7-B3 H chain only; also called He Ab
B2: GpH7-A5/GpH7-B3 variant S267_07I/GpL16-k0 (antibody, human IgG1, kappa)
heavy 1: not shown
heavy 2: not shown
light: B1 light
notes: as for B1
B3: GpH7-A5/GpH7-B3 variant S267_08L/GpL16-k0 (antibody, human IgG1, kappa)
heavy 1: not shown
heavy 2: not shown
light: B1 light
notes: as for B1
B4: GpH7-A5/GpH7-B3 variant S267_09D/GpL16-k0 (antibody, human IgG1, kappa)
heavy 1: not shown
heavy 2: not shown
light: B1 light
notes: as for B1
B5: GpH7-A5/GpH7-B3 variant S337_07I/GpL16-k0 (antibody, human IgG1, kappa)
heavy 1: not shown
heavy 2: not shown
light: B1 light
notes: as for B1
B6: GpH7-A5/GpH7-B3 variant S337_08L/GpL16-k0 (antibody, human IgG1, kappa)
heavy 1: not shown
heavy 2: not shown
light: B1 light
notes: as for B1
B7: GpH7-A5/GpH7-B3 variant T335_04F/GpL16-k0 (antibody, human IgG1, kappa)
heavy 1: not shown
heavy 2: not shown
light: B1 light
notes: as for B1
B8: GpH7-A5/GpH7-B3 variant T335_18N/GpL16-k0 (antibody, human IgG1, kappa)
heavy 1: not shown
heavy 2: not shown
light: B1 light
notes: as for B1
B9: GpH7-A5/GpH7-B3 variant V266_02A/GpL16-k0 (antibody, human IgG1, kappa)
heavy 1: not shown
heavy 2: not shown
light: B1 light
notes: as for B1
B10: GpH7-A5/GpH7-B3 variant V266_04F/GpL16-k0 (antibody, human IgG1, kappa)
heavy 1: not shown
heavy 2: not shown
light: B1 light
notes: as for B1
B11: GpH7-A5/GpH7-B3 variant V266_05P/GpL16-k0 (antibody, human IgG1, kappa)
heavy 1: not shown
heavy 2: not shown
light: B1 light
notes: as for B1
B12: GpH7-A5/GpH7-B3 variant V266_06M/GpL16-k0 (antibody, human IgG1, kappa)
heavy 1: not shown
heavy 2: not shown
light: B1 light
notes: as for B1
B13: GpH7-A5/GpH7-B3 variant V266_07I/GpL16-k0 (antibody, human IgG1, kappa)
heavy 1: not shown
heavy 2: not shown
light: B1 light
notes: as for B1
B14: GpH7-A5/GpH7-B3 variant V266_08L/GpL16-k0 (antibody, human IgG1, kappa)
heavy 1: not shown
heavy 2: not shown
light: B1 light
notes: as for B1
B15: GpH7-A5/GpH7-B3 variant V266_09D/GpL16-k0 (antibody, human IgG1, kappa)
heavy 1: not shown
heavy 2: not shown
light: B1 light
notes: as for B1
B16: GpH7-A5/GpH7-B3 variant V266_10E/GpL16-k0 (antibody, human IgG1, kappa)
heavy 1: not shown
heavy 2: not shown
light: B1 light
notes: as for B1
B17: GpH7-A5/GpH7-B3 variant V266_11K/GpL16-k0 (antibody, human IgG1, kappa)
heavy 1: not shown
heavy 2: not shown
light: B1 light
notes: as for B1
B18: GpH7-A5/GpH7-B3 variant V266_13S/GpL16-k0 (antibody, human IgG1, kappa)
heavy 1: not shown
heavy 2: not shown
light: B1 light
notes: as for B1
B19: GpH7-A5/GpH7-B3 variant V266_14T/GpL16-k0 (antibody, human IgG1, kappa)
heavy 1: not shown
heavy 2: not shown
light: B1 light
notes: as for B1
B20: GpH7-A5/GpH7-B3 variant V266_15Y/GpL16-k0 (antibody, human IgG1, kappa)
heavy 1: not shown
heavy 2: not shown
light: B1 light
notes: as for B1
B21: GpH7-A5/GpH7-B3 variant V266_16H/GpL16-k0 (antibody, human IgG1, kappa)
heavy 1: not shown
heavy 2: not shown
light: B1 light
notes: as for B1
B22: GpH7-A5/GpH7-B3 variant V266_18N/GpL16-k0 (antibody, human IgG1, kappa)
heavy 1: not shown
heavy 2: not shown
light: B1 light
notes: as for B1
B23: GpH7-A5/GpH7-B3 variant V266_19Q/GpL16-k0 (antibody, human IgG1, kappa)
heavy 1: not shown
heavy 2: not shown
light: B1 light
notes: as for B1

Molecular target: T2, FcγRIIIa extracellular domain with C-terminal His tag (human, UniProt P08637 17-208)
T2 construct: extracellular domain; also called 3a; FcgRIIIa; not shown: His tag at the C terminus
T2 sequence (P08637 17-208): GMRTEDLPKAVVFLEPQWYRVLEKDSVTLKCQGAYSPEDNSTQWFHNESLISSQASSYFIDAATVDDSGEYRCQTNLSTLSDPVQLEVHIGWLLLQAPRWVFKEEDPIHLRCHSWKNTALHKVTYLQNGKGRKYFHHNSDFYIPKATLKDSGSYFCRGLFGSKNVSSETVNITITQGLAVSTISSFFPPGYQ
Experiment: SPR (Biacore), relative binding, GpH7-A5/GpH7-B3/GpL16-k0 = 100
Experimental: (§1) Analysis of interaction between objective antibody and the FcγR was carried out using Biacore T100 (GE Healthcare). HBS-EP+ (GE Healthcare) was used as the running buffer, and the measurement temperature was set to 25° C. Chips produced by immobilizing the antigen peptide by the amine coupling method to a Series S Sencor Chip CM5 (GE Healthcare), or alternatively, chips produced by allowing preliminarily biotinylated antigen peptides to interact with and immobilize onto a Series S Sensor Chip SA (certified) (GE Healthcare) were used. Antibodies of interest were captured onto an antigen peptide-immobilized chip, and allowed to interact to each FcγR diluted with running buffer. To regenerate and repeatedly use the chip, the antibodies captured on the chip were washed off by reacting 10 mM glycine-HCl, pH 1.5.
(§2) The FcγR-binding activity of each antibody was assessed primarily using as an indicator the FcγR-binding activity and dissociation constant for FcγR.

Row | Binder | He/Con_3a
1 | B1 | 66 % of control
2 | B2 | 25.2 % of control
3 | B3 | 19.5 % of control
4 | B4 | 181 % of control
5 | B5 | 94.8 % of control
6 | B6 | 96.9 % of control
7 | B7 | 96 % of control
8 | B8 | 98.8 % of control
9 | B9 | 57.4 % of control
10 | B10 | 34.7 % of control
11 | B11 | -0.7 % of control
12 | B12 | 85.8 % of control
13 | B13 | 114 % of control
14 | B14 | 118 % of control
15 | B15 | 2.7 % of control
16 | B16 | 4.1 % of control
17 | B17 | -0.7 % of control
18 | B18 | 28.1 % of control
19 | B19 | 39.4 % of control
20 | B20 | 14.5 % of control
21 | B21 | 21.3 % of control
22 | B22 | 30.4 % of control
23 | B23 | 34.7 % of control

Molecular target: T1, FcγRIIb extracellular domain with …
Experiment: as above
Experimental: as §1, §2

Row | Binder | He/Con_2b
24 | B1 | 210 % of control
25 | B2 | 192 % of control
26 | B3 | 109 % of control
27 | B4 | 310 % of control
28 | B5 | 104 % of control
29 | B6 | 100 % of control
30 | B7 | 103 % of control
31 | B8 | 102 % of control
32 | B9 | 81 % of control
33 | B10 | 57.6 % of control
34 | B11 | 0.4 % of control
35 | B12 | 251 % of control
36 | B13 | 152 % of control
37 | B14 | 236 % of control
38 | B15 | 10.1 % of control
39 | B16 | 15.2 % of control
40 | B17 | 1 % of control
41 | B18 | 54.4 % of control
42 | B19 | 82.3 % of control
43 | B20 | 49.4 % of control
44 | B21 | 57.2 % of control
45 | B22 | 69.7 % of control
46 | B23 | 89.2 % of control
